Test results: PMC8087782, “Developing Nanodisc-ID for label-free characterizations of membrane proteins” (Communications Biology, 2021)

Legend:
MalFGK2 = target: T1, MalFGK2 (Escherichia coli, UniProt P68187); conditions: APEX2-MSP1D1 nanodiscs; MalE and maltose
T1 construct: gene malK

[1] = target: vesicle (v-) SNAREs reconstituted in APEX2-MSP1D1 nanodiscs (UniProt P63045); experiment: proximity labelling; nanodisc-ID: liposomes harboring t-SNAREs incubated with APEX2-MSP1D1 nanodiscs bearing v-SNAREs, without syt1-Ca2+; PL efficiency of t-SNAREs against v-SNARE nanodisc concentration; PBS, room temp; one-site fit; apparent
[2] = target: vesicle (v-) SNAREs reconstituted in APEX2-MSP1D1 nanodiscs (UniProt P63045); experiment: proximity labelling; nanodisc-ID: liposomes harboring t-SNAREs incubated with APEX2-MSP1D1 nanodiscs bearing v-SNAREs, with syt1-Ca2+; PL efficiency of t-SNAREs against v-SNARE nanodisc concentration; PBS, room temp; one-site fit; apparent
[3] = target: vesicle (v-) SNAREs reconstituted in APEX2-MSP1D1 nanodiscs (UniProt P63045); experiment: proximity labelling; nanodisc-ID: liposomes harboring t-SNAREs incubated with APEX2-MSP1D1 nanodiscs bearing v-SNAREs, without syt1-Ca2+; PL efficiency of t-SNAREs against v-SNARE nanodisc concentration; PBS, room temp; one-site fit; apparent; remark: listed apart in the source

T1 sequence (P68187 whole entry): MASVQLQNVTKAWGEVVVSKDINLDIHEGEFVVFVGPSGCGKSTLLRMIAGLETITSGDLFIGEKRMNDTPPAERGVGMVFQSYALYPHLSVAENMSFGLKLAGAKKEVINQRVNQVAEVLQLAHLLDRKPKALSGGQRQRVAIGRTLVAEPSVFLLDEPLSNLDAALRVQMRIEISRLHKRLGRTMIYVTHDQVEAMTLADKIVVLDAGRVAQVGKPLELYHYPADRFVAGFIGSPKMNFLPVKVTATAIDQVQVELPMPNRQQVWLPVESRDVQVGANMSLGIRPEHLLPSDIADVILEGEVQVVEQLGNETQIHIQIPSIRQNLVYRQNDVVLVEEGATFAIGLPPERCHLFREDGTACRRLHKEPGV
T1 sequence (P02916 whole entry, further chain): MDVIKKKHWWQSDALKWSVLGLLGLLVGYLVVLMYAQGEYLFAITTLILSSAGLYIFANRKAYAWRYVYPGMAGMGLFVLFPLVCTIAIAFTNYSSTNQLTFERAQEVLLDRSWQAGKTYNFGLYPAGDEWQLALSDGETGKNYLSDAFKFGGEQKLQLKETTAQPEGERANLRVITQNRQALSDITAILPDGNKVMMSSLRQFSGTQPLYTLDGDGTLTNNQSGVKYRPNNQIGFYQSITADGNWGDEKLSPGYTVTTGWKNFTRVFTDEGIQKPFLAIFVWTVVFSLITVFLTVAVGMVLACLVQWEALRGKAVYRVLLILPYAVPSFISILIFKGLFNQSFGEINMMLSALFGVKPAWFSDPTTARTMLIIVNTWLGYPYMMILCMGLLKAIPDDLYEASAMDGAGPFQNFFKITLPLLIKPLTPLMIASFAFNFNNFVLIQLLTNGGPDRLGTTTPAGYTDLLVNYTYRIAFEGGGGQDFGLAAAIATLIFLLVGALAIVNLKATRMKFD
T1 sequence (P68183 whole entry, further chain): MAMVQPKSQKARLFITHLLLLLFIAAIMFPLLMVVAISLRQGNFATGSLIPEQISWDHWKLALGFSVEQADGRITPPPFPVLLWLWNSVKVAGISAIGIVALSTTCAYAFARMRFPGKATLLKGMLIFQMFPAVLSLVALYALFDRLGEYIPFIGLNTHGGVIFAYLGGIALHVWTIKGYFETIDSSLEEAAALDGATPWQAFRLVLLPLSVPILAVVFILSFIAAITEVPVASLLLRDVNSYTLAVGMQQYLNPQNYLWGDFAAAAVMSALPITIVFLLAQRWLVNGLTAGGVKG

Row | Molecule | photo-colorimetric ATPase assay (MalFGK2) | Kd [1] [µM] | Kd [2] [µM] | Kd [3] [µM]
1 | Nc1ncnc2c1ncn2[C@@H]1O[C@H](COP(=O)(O)OP(=O)(O)OP(=O)(O)O)[C@@H](O)[C@H]1O [ATP] | the ATPase activity of MalFGK2 was responding to the addition of MalE and maltose |  |  | 
2 | target (t-) membrane SNAREs embedded in liposomes (complex) |  | 2.6 | 0.086 | 2.8
